Results on 3 molecules are retold here after patent US20050255559A1 (published 2005).

This assay has as its target human calcium sensitive potassium channel α subunit (human Slowpoke α) (human, UniProt Q12791 1-1236). Nature of the assay: cell-based or functional assay.

Chain of human calcium sensitive potassium channel α subunit (human Slowpoke α) (Q12791 whole entry): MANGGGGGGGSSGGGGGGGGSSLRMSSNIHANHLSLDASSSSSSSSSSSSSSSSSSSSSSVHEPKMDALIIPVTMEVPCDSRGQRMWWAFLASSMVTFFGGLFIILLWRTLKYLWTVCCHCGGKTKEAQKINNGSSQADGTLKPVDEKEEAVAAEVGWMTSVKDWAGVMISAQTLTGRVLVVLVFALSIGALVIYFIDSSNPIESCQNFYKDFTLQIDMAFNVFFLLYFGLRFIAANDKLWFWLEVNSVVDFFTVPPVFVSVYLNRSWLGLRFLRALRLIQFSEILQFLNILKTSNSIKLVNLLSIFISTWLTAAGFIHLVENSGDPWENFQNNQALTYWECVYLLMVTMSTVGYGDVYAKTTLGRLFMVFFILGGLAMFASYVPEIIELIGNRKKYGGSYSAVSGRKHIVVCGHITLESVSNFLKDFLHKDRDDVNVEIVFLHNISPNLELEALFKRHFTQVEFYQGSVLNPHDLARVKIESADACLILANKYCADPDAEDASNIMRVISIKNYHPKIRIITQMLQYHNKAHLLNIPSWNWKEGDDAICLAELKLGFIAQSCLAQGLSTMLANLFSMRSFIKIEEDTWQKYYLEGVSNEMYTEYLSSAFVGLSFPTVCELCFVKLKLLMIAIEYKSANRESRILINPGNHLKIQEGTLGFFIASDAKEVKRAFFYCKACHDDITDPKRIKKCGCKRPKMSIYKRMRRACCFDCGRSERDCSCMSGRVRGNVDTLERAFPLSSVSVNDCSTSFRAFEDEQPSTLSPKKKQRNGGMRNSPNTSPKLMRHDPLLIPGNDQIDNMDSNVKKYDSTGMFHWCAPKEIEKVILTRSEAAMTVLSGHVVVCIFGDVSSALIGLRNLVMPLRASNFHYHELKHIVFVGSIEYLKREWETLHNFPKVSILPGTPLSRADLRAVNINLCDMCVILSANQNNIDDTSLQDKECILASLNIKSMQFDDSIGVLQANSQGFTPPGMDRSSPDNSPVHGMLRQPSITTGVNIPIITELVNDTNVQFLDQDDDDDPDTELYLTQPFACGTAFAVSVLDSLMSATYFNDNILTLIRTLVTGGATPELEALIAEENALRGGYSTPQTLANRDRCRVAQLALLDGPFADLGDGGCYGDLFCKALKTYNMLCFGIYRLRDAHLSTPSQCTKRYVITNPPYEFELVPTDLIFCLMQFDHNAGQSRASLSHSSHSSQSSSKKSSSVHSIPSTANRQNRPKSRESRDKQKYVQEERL

B1: human calcium sensitive potassium channel β3c subunit (other)
chain: MFPLLYELTAVSPSPFPQRTAFPASGKKRETDYSDGDPLDVHKRLPSSTGEDRAVMLGFAMMGFSVLMFFLLGTTILKPFMLSIQREESTCTAIHTDIMDDWLDCAFTCGVHCHGQGKYPCLQVFVNLSHPGQKALLHYNEEAVQINPKCFYTPKCHQDRSDLLNSALDIKEFFDHKNGTPFSCFYSPASQSEDVILIKKYDQMAIFHCLFWPSLTLLGGALIVGMVRLTQHLSLLCEKYSTVVRDEVGGKVPYIEQHQFKLCIMRRSKGRAEKS
Take B1: the “V1/2 (half-maximal activation voltage, Boltzmann fit, inside-out patches, 30 µM Ca2+)” value was determined as 20 mV.

B2: human calcium sensitive potassium channel β2 subunit (other)
chain: MFIWTSGRTSSSYRHDEKRNIYQKIRDHDLLDKRKTVTALKAGEDRAILLGLAMMVCSIMMYFLLGITLLRSYMQSVWTEESQCTLLNASITETFNCSFSCGPDCWKLSQYPCLQVYVNLTSSGEKLLLYHTEETIKINQKCSYIPKCGKNFEESMSLVNVVMENFRKYQHFSCYSDPEGNQKSVILTKLYSSNVLFHSLFWPTCMMAGGVAIVAMVKLTQYLSLLCERIQRINR
In the case of B2, the “V1/2 (half-maximal activation voltage, Boltzmann fit, inside-out patches, 30 µM Ca2+)” value is -55 mV.

B3: human calcium sensitive potassium channel β3a subunit (other)
chain: MQPFSIPVQITLQGSRRRQGRTAFPASGKKRETDYSDGDPLDVHKRLPSSTGEDRAVMLGFAMMGFSVLMFFLLGTTILKPFMLSIQREESTCTAIHTDIMDDWLDCAFTCGVHCHGQGKYPCLQVFVNLSHPGQKALLHYNEEAVQINPKCFYTPKCHQDRSDLLNSALDIKEFFDHKNGTPFSCFYSPASQSEDVILIKKYDQMAIFHCLFWPSLTLLGGALIVGMVRLTQHLSLLCEKYSTVVRDEVGGKVPYIEQHQFKLCIMRRSKGRAEKS
As for B3, the “V1/2 (half-maximal activation voltage, Boltzmann fit, inside-out patches, 30 µM Ca2+)” value was determined as 45.4 mV.
